Results: patent publication US20200121783A1

Molecular target: eOD-GT8 60 mer (Aquifex aeolicus; HIV-1)
Assay: ELISA, antibody titration

## VRC01 (antibody)
  EC50 (read off the curve): 0.2 µg/mL

## VRC-PG04g1 (v-gene germline revertant of VRC-PG04) (antibody)
  EC50 (read off the curve): 0.5 µg/mL
